# Experimental data taken from patent publication US20030091564A1 (published 2003).
# Columns and labels:
# CD40 on cells = CD40 on cells (UniProt P25942 21-277, limits assumed); experiment: cell-based or functional assay
# CD40/Fc fusion protein [1] = target: T1, CD40/Fc fusion protein (human, UniProt P25942 21-193); experiment: biosensor assay substantially as in Example 22; yeast-expressed protein
# T1 construct: extracellular domain; also called C40/Fc; CD40Fc recombinant receptor
# Protocol: (§1) The biosensor chips were coated with goat anti-human IgG₁ Fc, which was used to bind CD40/Fc (prepared as described in Example 1) to the chip. The different constructs of CD40-L were then added at increasing concentrations; the chip was regenerated between the different constructs by the addition of sodium hydroxide. Two separate experiments were performed. In the first, the binding of a dimeric human CD40-L (Example 14), trimeric human CD40-L (Example 15), dimeric murine CD40-L (prepared substantially as described in Example 14 for human CD40-L/FC) and trimeric murine CD40-L (prepared substantially as described for the human CD40-L in Example 15) were compared. In the second experiment, the binding of trimeric human CD40-L was compared to the binding of two different preparations of monomeric human CD40-L prepared as described in Example 18. The resultant data were analyzed to determine the affinity and association rate constants of the different CD40-L constructs. Results are shown in Table 12 below, and in FIGS. 18 and 19.
# Mutant 18PP had only a single mutation in the molecule, which was sufficient to affect secretion in yeast. Mutant 41 had two mutations, both of which were in the isoleucine residues of the zipper domain. The mutations in the zipper improve secretion from yeast without apparent effect on activity.
# CD40/Fc fusion protein [2] = target: T1, CD40/Fc fusion protein; experiment: BIAcore biosensor, CD40/Fc captured by goat anti-human IgG1 Fc; first experiment
# Protocol: (§2) This example illustrates the binding affinities of several different CD40-L constructs. Affinity experiments were conducted by biospecific interaction analysis (BIA) using a biosensor, an instrument that combines a biological recognition mechanism with a sensing device or transducer. An exemplary biosensor is BIAcore™, from Pharmacia Biosensor AB (Uppsala, Sweden; see Fägerstam L. G., Techniques in Protein Chemistry II, ed. J. J. Villafranca, Acad. Press, NY, 1991). BIAcore™ uses the optical phenomenon surface plasmon resonance (Kretschmann and Raether, Z. Naturforschung, Teil. A 23:2135, 1968) to monitor the interaction of two biological molecules.
# as §1
# CD40/Fc fusion protein [3] = target: T1, CD40/Fc fusion protein; experiment: BIAcore biosensor, CD40/Fc captured by goat anti-human IgG1 Fc; second experiment
# Protocol: as §2
# (§3) The biosensor chips were coated with goat anti-human IgG₁ Fc, which was used to bind CD40/Fc (prepared as described in Example 1) to the chip. The different constructs of CD40-L were then added at increasing concentrations; the chip was regenerated between the different constructs by the addition of sodium hydroxide. Two separate experiments were performed. […] The resultant data were analyzed to determine the affinity and association rate constants of the different CD40-L constructs. […]
# CD40/Fc fusion protein [4] = target: T1, CD40/Fc fusion protein; experiment: BIAcore biosensor, CD40/Fc captured by goat anti-human IgG1 Fc; first experiment; K1 (site 1)
# Protocol: as §2, §1
# CD40/Fc fusion protein [5] = target: T1, CD40/Fc fusion protein; experiment: BIAcore biosensor, CD40/Fc captured by goat anti-human IgG1 Fc; first experiment; K2 (site 2)
# Protocol: as §2, §1
# CD40/Fc fusion protein [6] = target: T1, CD40/Fc fusion protein; experiment: BIAcore biosensor, CD40/Fc captured by goat anti-human IgG1 Fc; second experiment; K1 (site 1)
# Protocol: as §2, §3
# CD40/Fc fusion protein [7] = target: T1, CD40/Fc fusion protein; experiment: BIAcore biosensor, CD40/Fc captured by goat anti-human IgG1 Fc; second experiment; K2 (site 2)
# Protocol: as §2, §3
# T1 sequence (P25942 other isoform, or with tags, fused parts or gaps limits assumed): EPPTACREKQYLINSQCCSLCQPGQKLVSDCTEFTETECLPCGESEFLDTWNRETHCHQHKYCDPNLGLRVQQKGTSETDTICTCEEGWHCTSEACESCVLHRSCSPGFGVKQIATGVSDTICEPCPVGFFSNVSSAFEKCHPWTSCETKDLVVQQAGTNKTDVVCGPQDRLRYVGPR
# Chain of CD40 on cells (P25942 21-277 limits assumed): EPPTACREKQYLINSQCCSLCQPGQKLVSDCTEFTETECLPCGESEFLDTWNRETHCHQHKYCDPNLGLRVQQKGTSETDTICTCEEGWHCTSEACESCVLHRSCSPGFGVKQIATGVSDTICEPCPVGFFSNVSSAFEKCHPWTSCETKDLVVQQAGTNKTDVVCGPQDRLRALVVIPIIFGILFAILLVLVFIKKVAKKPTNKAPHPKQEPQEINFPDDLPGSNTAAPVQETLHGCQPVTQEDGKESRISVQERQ
Binder,"B-cell proliferation (U/µg), Experiment 2 (CD40 on cells)",Ka (CD40/Fc fusion protein [1]),Site 1 (mol/mol CD40/Fc) (CD40/Fc fusion protein [2]),Site 2 (mol/mol CD40/Fc) (CD40/Fc fusion protein [2]),Site 2 (mol/mol CD40/Fc) (CD40/Fc fusion protein [3]),Ka (CD40/Fc fusion protein [4]),Ka (CD40/Fc fusion protein [5]),Ka (CD40/Fc fusion protein [6]),Ka (CD40/Fc fusion protein [7])
"wild type CD40 ligand/zipper domain fusion protein expressed in yeast (ligand, also called WT) not shown",15 U/µg,7.7e+07 M⁻¹,–,–,–,–,–,–,–
"trimeric human CD40-L (ligand, Leader left out; also called Human Trimer; CD40-L trimer) not shown",–,–,0.04 mol/mol CD40/Fc,0.68 mol/mol CD40/Fc,0.41 mol/mol CD40/Fc,5e+09 M⁻¹,7.5e+07 M⁻¹,6.6e+08 M⁻¹,2.6e+07 M⁻¹
"CD40-L/FC2 soluble CD40-L/Fc fusion protein (Fc fusion, also called dimeric human CD40-L; Human Dimer) DYKDDDDKRSCDKTHTCPPCPAPELLGGPSVFLFPPKPKDTLMISRTPEVTCVVVDVSHEDPEVKFNWYVDGVEVHNAKTKPREEQYNSTYRVVSVLTVLHQDWLNGKEYKCKVSNKALPAPIEKTISKAKGQPREPQVYTLPPSRDELTKNQVSLTCLVKGFYPSDIAVEWESNGQPENNYKTTPPVLDSDGSFFLYSKLTVDKSRWQQGNVFSCSVMHGGGGSGGGGSGGGGSSSDKIEDERNLHEDFVFMKTIQRCNTGERSLSLLNCEEIKSQFEGFVKDIMLNKEETKKENSFEMQKGDQNPQIAAHVISEASSKTTSVLQWAEKGYYTMSNNLVTLENGKQLTVKRQGLYYIYAQVTFCSNREASSQAPFIASLCLKSPGRFERILLRAANTHSSAKPCGQQSIHLGGVFELQPGASVFVNVTDPSQVSHGTGFTSFGLLKL",–,–,0.013 mol/mol CD40/Fc,0.049 mol/mol CD40/Fc,–,1.6e+11 M⁻¹,7e+08 M⁻¹,–,–
"trimeric murine CD40-L (ligand, also called Murine Trimer; muCD40LT) not shown",–,–,0.02 mol/mol CD40/Fc,0.44 mol/mol CD40/Fc,–,6e+10 M⁻¹,1.6e+08 M⁻¹,–,–
"dimeric murine CD40-L (Fc fusion, not shown: a dimerising Fc or GST, the whole entry is named; also called Murine Dimer) HRRLDKVEEEVNLHEDFVFIKKLKRCNKGEGSLSLLNCEEMRRQFEDLVKDITLNKEEKKENSFEMQRGDEDPQIAAHVVSEANSNAASVLQWAKKGYYTMKSNLVMLENGKQLTVKREGLYYVYTQVTFCSNREPSSQRPFIVGLWLKPSSGSERILLKAANTHSSSQLCEQQSVHLGGVFELQAGASVFVNVTEASQVIHRVGFSSFGLLKL",–,–,0.05 mol/mol CD40/Fc,0.14 mol/mol CD40/Fc,–,–,–,–,–
